Assay results reported in patent US6001988, “High affinity nucleic acid ligands to lectins” (NeXstar Pharmaceuticals, Inc.).

How the values were obtained:
P-selectin (PS-Rg) [1] = molecular target: T1, P-selectin (PS-Rg) (Homo sapiens, UniProt P16109 P16109:42-321); experiment: filter; 4 C, HSMC; details: tags: human IgG1 Fc fusion (provided by A. Varki); chain copies: 2; label: 32P; hairpin
T1 chain: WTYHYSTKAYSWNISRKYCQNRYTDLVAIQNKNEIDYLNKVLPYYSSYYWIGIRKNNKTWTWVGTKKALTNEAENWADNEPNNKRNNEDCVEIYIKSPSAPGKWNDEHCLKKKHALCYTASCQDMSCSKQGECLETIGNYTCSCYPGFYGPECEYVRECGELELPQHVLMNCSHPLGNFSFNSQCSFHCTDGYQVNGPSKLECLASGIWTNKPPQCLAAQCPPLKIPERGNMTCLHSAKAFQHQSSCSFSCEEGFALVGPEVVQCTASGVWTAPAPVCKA
Description: (§1) As described in SELEX Patent Applications, the nitrocellulose filter partitioning method was used to determine the affinity of RNA ligands for LS-Rg and for other proteins. Filter discs (nitrocellulose/cellulose acetate mixed matrix, 0.45 um pore size, Millipore) were placed on a vacuum manifold and washed with 2 ml of HSMC buffer under vacuum. Reaction mixtures, containing ^32P labeled RNA pools and unlabeled LS-Rg, were incubated in HSMC for 10–20 min at 4° C., room temperature or 37° C., filtered, and then immediately washed with 4 ml HSMC at the same temperature. The filters were air-dried and counted in a Beckman LS6500 liquid scintillation counter without fluor.
(§2) The affinity of L-selectin ligands to ES-Rg, PS-Rg and CD22β-Rg were determined by nitrocellulose partitioning. […] In general, a ligand's affinity for ES-Rg is 10^3-fold lower and that for PS-Rg is about 10^4-fold less than for LS-Rg. […] The specificity of oligonucleotide ligand binding contrasts sharply with the binding of cognate carbohydrates by the selectins and confirms the assertion that SELEX ligands will have greater specificity than carbohydrate ligands.
(§3) *Dissociation constants were determined at 4° C. in HSMC buffer.

L-selectin (LS-Rg) [2] = molecular target: T2, L-selectin (LS-Rg) (Homo sapiens, UniProt P14151 P14151:39-332); experiment: filter; 4 C, HSMC; 14.9 nM at room temp; details: tags: human IgG2 Fc fusion (provided by A. Varki); label: 32P; hairpin
T2 chain: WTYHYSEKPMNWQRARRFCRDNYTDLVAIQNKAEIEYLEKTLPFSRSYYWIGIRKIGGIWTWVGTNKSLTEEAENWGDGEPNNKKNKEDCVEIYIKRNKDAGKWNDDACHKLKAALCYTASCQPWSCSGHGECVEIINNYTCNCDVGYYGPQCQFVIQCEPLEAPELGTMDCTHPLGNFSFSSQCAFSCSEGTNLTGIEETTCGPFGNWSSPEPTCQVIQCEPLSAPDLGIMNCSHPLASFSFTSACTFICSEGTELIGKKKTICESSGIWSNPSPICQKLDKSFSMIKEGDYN
Description: as §1
(§4) The dissociation constants for representative ligands from rounds 13 and 14, including all orphans, were determined by nitrocellulose filter binding experiments and are listed in Table IX. These calculations assume two RNA ligand binding sites per chimera. The affinity of random RNA cannot be reliably determined but is estimated to be approximately 10 µM.

E-selectin (ES-Rg) [3] = molecular target: T3, E-selectin (ES-Rg) (Homo sapiens, UniProt P16581 P16581:22-556); experiment: filter; 4 C, HSMC; details: tags: human IgG1 Fc fusion (provided by A. Varki), chain copies: 2, label: 32P
T3 chain: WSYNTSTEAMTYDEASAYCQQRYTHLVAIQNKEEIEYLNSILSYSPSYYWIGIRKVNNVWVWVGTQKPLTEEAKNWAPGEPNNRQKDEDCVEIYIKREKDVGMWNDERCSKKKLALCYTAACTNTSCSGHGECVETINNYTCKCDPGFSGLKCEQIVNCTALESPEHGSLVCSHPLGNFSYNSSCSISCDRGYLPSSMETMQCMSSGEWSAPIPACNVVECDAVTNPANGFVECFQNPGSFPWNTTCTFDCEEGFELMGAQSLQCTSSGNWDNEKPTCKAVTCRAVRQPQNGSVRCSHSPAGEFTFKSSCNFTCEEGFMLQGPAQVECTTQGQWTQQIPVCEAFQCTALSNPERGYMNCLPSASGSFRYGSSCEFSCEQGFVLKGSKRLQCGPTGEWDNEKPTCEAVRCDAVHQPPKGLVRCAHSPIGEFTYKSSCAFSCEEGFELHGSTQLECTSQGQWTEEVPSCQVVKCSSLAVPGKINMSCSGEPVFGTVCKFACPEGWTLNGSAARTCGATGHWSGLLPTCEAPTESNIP
Description: as §1, §2, §3

L-selectin (LS-Rg) [4] = molecular target: T2, L-selectin (LS-Rg); experiment: filter; 4 C, HSMC; 75 nM at room temp; details: tags: human IgG2 Fc fusion (provided by A. Varki); label: 32P; hairpin
Description: as §1, §4

L-selectin (LS-Rg) [5] = molecular target: T2, L-selectin (LS-Rg); experiment: filter; 4 C, HSMC; 15.4 nM at room temp; details: tags: human IgG2 Fc fusion (provided by A. Varki); label: 32P; hairpin
Description: as §1, §4

L-selectin (LS-Rg) [6] = molecular target: T2, L-selectin (LS-Rg); experiment: filter; 4 C, HSMC; 18 nM at room temp; details: tags: human IgG2 Fc fusion (provided by A. Varki); label: 32P
Description: as §1, §4

L-selectin (LS-Rg) [7] = molecular target: T2, L-selectin (LS-Rg); experiment: filter; 4 C, HSMC; details: tags: human IgG2 Fc fusion (provided by A. Varki); label: 32P; no stem
Description: as §1, §4

P-selectin (PS-Rg) [8] = molecular target: T1, P-selectin (PS-Rg); experiment: filter; room temp; details: tags: human IgG1 Fc fusion (provided by A. Varki); chain copies: 2; label: 32P; hairpin
Description: (§5) RNA was reverse transcribed into cDNA by AMV reverse transcriptase at 48° C. for 60 min in 50 mM Tris-Cl pH (8.3), 60 mM NaCl, 6 mM Mg(OAc)_2, 10 mM DTT, 100 pmol DNA primer, 0.4 mM each of dNTPs, and 0.4 unit/µl AMV RT. […] C) Nitrocellulose Filter Partitioning As described in SELEX Patent Applications, the nitrocellulose filter partitioning method was used to determine the affinity of RNA ligands for WGA and for other proteins. Filter discs (nitrocellulose/cellulose acetate mixed matrix, 0.45 µm pore size, Millipore; or pure nitrocellulose, 0.45 µm pore size, Bio-Rad) were placed on a vacuum manifold and washed with 4 ml of HBSS buffer under vacuum. Reaction mixtures, containing ^32P labeled RNA pools and unlabeled WGA, were incubated in HBSS for 10 min at room temperature, filtered, and then immediately washed with 4 ml HBSS. The filters were air-dried and counted in a Beckman LS6500 liquid scintillation counter without fluor. WGA is a homodimer, molecular weight 43.2 kD, with 4 GlcNAc binding sites per dimer. For affinity calculations, we assume one RNA ligand binding site per monomer (two per dimer). The monomer concentration is defined as 2 times the dimer concentration. […]
(§6) The affinity of representative cloned ligands for LS-Rg, ES-Rg, PS-Rg, CD22β-Rg and WGA was determined by nitrocellulose partitioning and the results shown in Table XIV. […]
(§7) *Kds were determined at room temperature.

E-selectin (ES-Rg) [9] = molecular target: T3, E-selectin (ES-Rg); experiment: filter; room temp; details: tags: human IgG1 Fc fusion (provided by A. Varki); chain copies: 2; label: 32P; hairpin
Description: as §5, §6, §7

L-selectin (LS-Rg) [10] = molecular target: T2, L-selectin (LS-Rg); experiment: filter; room temp, Ca/Mg; 160 pM at 37 C; details: tags: human IgG2 Fc fusion (provided by A. Varki); label: 32P; hairpin
P-selectin (PS-Rg) [11] = molecular target: T1, P-selectin (PS-Rg); experiment: filter; room temp, Ca/Mg buffer; details: tags: lectin, EGF and first two CRD domains fused to human IgG1 Fc (provided by A. Varki); chain copies: 2 (dimeric Fc chimera, inferred)
E-selectin (ES-Rg) [12] = molecular target: T3, E-selectin (ES-Rg); experiment: filter; room temp, Ca/Mg buffer; details: tags: extracellular domain fused to human IgG1 Fc (provided by A. Varki); chain copies: 2 (dimeric Fc chimera, inferred)
L-selectin (LS-Rg) [13] = molecular target: T2, L-selectin (LS-Rg); experiment: filter; room temp; 370 pM at 37 C; details: tags: human IgG2 Fc fusion (provided by A. Varki); label: 32P
L-selectin (LS-Rg) [14] = molecular target: T2, L-selectin (LS-Rg); experiment: filter; room temp; 260 pM at 37 C; details: tags: human IgG2 Fc fusion (provided by A. Varki); label: 32P; hairpin
[15] = molecular target: T4, wheat germ agglutinin (WGA) (Triticum vulgare, UniProt P10968 P10968:27-197); experiment: filter; HBSS, room temp; 19.2 nM in Table IV; details: tags: free lectin, E Y Laboratories; label: 32P; hairpin
T4 sequence: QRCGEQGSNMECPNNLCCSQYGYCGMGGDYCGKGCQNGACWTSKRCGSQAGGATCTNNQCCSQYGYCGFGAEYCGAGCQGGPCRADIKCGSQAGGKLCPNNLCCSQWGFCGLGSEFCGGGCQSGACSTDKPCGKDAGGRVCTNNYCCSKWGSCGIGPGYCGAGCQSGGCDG
Description: The specifically eluted fraction was processed for use in the following round. Fractions eluted from immobilized WGA were heated at 90° C. for 5 minutes in 1% SDS, 2% β-mercaptoethanol and extracted with phenol/chloroform. RNA was reverse transcribed into cDNA by AMV reverse transcriptase at 48° C. for 60 min in 50 mM Tris-Cl pH (8.3), 60 mM NaCl, 6 mM Mg(OAc)_2, 10 mM DTT, 100 pmol DNA primer, 0.4 mM each of dNTPs, and 0.4 unit/µl AMV RT. […] C) Nitrocellulose Filter Partitioning As described in SELEX Patent Applications, the nitrocellulose filter partitioning method was used to determine the affinity of RNA ligands for WGA and for other proteins. Filter discs (nitrocellulose/cellulose acetate mixed matrix, 0.45 µm pore size, Millipore; or pure nitrocellulose, 0.45 µm pore size, Bio-Rad) were placed on a vacuum manifold and washed with 4 ml of HBSS buffer under vacuum. Reaction mixtures, containing ^32P labeled RNA pools and unlabeled WGA, were incubated in HBSS for 10 min at room temperature, filtered, and then immediately washed with 4 ml HBSS. The filters were air-dried and counted in a Beckman LS6500 liquid scintillation counter without fluor. WGA is a homodimer, molecular weight 43.2 kD, with 4 GlcNAc binding sites per dimer. For affinity calculations, we assume one RNA ligand binding site per monomer (two per dimer). […]

L-selectin (LS-Rg) [16] = molecular target: T2, L-selectin (LS-Rg); experiment: filter; 4 C, HSMC; 9.2 nM at room temp; details: tags: human IgG2 Fc fusion (provided by A. Varki); label: 32P; hairpin
Description: as §1, §4

B1: F13.32 (ssRNA)
RNA: GGGAGGACGAUGCGGCGCGUAUGUGUGAAAGCGUGUGCACGGAGGCGUCUACAAUCAGACGACUCGCCCGA
modifications: 2'-NH2 all C and U
Kd (P-selectin (PS-Rg) [1]): 17000 nM
Kd (L-selectin (LS-Rg) [2]): 15.7 nM

B2: F13.57 (ssRNA)
RNA: GGGAGGACGAUGCGGUAACAUAAAGUAGCGCGUCUGUGAGAGGAAGUGCCUGGAUCAGACGACUCGCCCGA
modifications: 2'-NH2 all C and U
Kd (E-selectin (ES-Rg) [3]; hairpin): 2700 nM
Kd (L-selectin (LS-Rg) [4]): 3 nM

B3: F14.9 (ssRNA)
RNA: GGGAGGACGAUGCGGAAACCUUGAUGUGUGAUAGAGCAUCCCCCAGGCGACGUACCAGACGACUCGCCCGA
modifications: 2'-NH2 all C and U
Kd (L-selectin (LS-Rg) [5]): 8.2 nM

B4: F13.51 (ssRNA)
RNA: GGGAGGACGAUGCGGAUGUAAAUCUAGGCAGAAACGUAGGGCAUCCACCGCAACGACAGACGACUCGCCCGA
modifications: 2'-NH2 all C and U
Kd (E-selectin (ES-Rg) [3]): 2000 nM
Kd (L-selectin (LS-Rg) [6]): 8.8 nM

B5: F14.25 (ssRNA)
RNA: GGGAGGACGAUGCGGUAGAGGUAGUAUGUGUGGGAGAUGAAAAUACUGUGGAAAGCAGACGACUCGCCCGA
modifications: 2'-NH2 all C and U
Kd (L-selectin (LS-Rg) [7]): 1300 nM

B6: 227 (ssDNA)
DNA: CTACCTACGATCTGACTAGCCGGACATGAGCGTTACAAGGTGCTAAACGTAACGTACTTGCTTACTCTCATGTAGTTCC
Kd (P-selectin (PS-Rg) [8]): 560 nM
Kd (E-selectin (ES-Rg) [9]): 33 nM
Kd (L-selectin (LS-Rg) [10]): 0.043 nM

B7: 174 (ssDNA)
DNA: CTACCTACGATCTGACTAGCCATTCACCATGGCCCCTTCCTACGTATGTTCTGCGGGTGGCTTACTCTCATGTAGTTCC
Kd (P-selectin (PS-Rg) [11]): 380 nM
Kd (E-selectin (ES-Rg) [12]): 28 nM
Kd (L-selectin (LS-Rg) [13]): 0.043 nM

B8: 230 (ssDNA)
DNA: CTACCTACGATCTGACTAGCTGCACACCTGAGGGTTACAAGGCGCTAGACGTAACCTCTCGCTTACTCTCATGTAGTTCC
Kd (P-selectin (PS-Rg) [11]): 600 nM
Kd (E-selectin (ES-Rg) [12]): 19 nM
Kd (L-selectin (LS-Rg) [14]): 0.057 nM

B9: 11.24 (ssRNA)
RNA: GGGAAAAGCGAAUCAUACACAAGACGGCUGUGUGGUGUUGGAGCGUCAUAGUAGGAGUCGUCACGAACCAAGGCGCUCCGCCAGAGACCAACCGAGAA
modifications: 2'-NH2 all C and U
Kd [15]: 19.4 nM

B10: F13.48 (ssRNA)
RNA: GGGAGGACGAUGCGGAAAGUUAUGAGUCCGUAUAUCAAGGUCGACAUGUGUGAAUCAGACGACUCGCCCGA
modifications: 2'-NH2 all C and U
Kd (L-selectin (LS-Rg) [16]): 15.9 nM
Kd (P-selectin (PS-Rg) [1]): 720 nM
